# Assay results as given in US12612465B2, “Formulations comprising PCSK9 specific monoclonal antibodies” (Amgen Inc., priority 2012, dated 2026).
# Experiments:
# Experiment in all cases: 11F1 binding specificity competition assay
# [1] = target: PCSK9 (Homo sapiens, UniProt Q8NBP7); conditions: 0.4 μg/mL 11F1, 0 to 20 μg/mL competitor
# Experimental: (§1) Biotinylated PCSK9, diluted in buffer A (25 mM Tris, 150 mM NaCl, 0.1% BSA, 0.05% tween, pH 7.5) was bound to neutravidin coated 96 well plates at a concentration of 0.2 μg/mL, for one hour incubation at room temperature. Separately, 0.4 μg/mL of 11F1 was incubated for one hour at room temperature with various concentrations (ranging from 0 to 20 μg/mL) of either PCSK1, PCSK2, PCSK7, PCSK9 or furin (R&D Systems, Minneapolis, Minn.) (diluted in buffer A w/o tween). Furin inhibitor, at 4.5 μg/mL, was included with all furin containing reactions. The PCSK9 coated streptavidin plate was washed with buffer A and the antibody/proprotein convertase mixture was added to the plate and incubated at room temperature for one hour. After washing, bound antibody was detected by incubation with goat-α-human Fc-HRP (160 ng/mL, diluted in buffer A) (Jackson Laboratories, Bar Harbor, Me.) followed by TMB substrate. The reaction was stopped with 1 N HCl and the absorbance was read at a wavelength of 450 nm on a Spectramax Plus 384 spectrophotometer (Molecular Devices Inc., Sunnyvale, Calif.).
# (§2) This assay relied on the ability of proprotein convertase in solution to compete for the binding of 11F1 to plate-captured PCSK9. […] All results were expressed as the mean OD450 value±standard deviation versus concentration of the proprotein convertase. […] Therefore, at the protein concentrations studied, 11F1 binds only to PCSK9 and not to the other proprotein convertase family members tested.
# [2] = target: T1, PCSK2 (Homo sapiens, UniProt P16519); conditions: 0.4 μg/mL 11F1, 0 to 20 μg/mL competitor
# T1 construct: purchased R&D Systems
# T1 sequence (P16519 110-638): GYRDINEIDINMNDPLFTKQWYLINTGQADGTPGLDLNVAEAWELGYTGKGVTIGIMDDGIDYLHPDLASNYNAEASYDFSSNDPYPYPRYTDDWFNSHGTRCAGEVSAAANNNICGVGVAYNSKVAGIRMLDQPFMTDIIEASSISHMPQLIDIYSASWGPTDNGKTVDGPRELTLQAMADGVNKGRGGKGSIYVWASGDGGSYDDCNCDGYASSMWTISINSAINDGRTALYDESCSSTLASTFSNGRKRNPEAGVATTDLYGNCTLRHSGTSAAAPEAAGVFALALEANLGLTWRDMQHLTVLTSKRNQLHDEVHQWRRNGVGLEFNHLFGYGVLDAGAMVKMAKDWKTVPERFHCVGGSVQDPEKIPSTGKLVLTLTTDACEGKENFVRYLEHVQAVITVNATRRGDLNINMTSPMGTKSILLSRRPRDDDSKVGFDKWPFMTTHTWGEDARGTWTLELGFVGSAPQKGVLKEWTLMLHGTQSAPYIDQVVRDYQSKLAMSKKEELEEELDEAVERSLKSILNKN
# Experimental: as §1, §2
# [3] = target: T2, furin (Homo sapiens, UniProt P09958); conditions: 0.4 μg/mL 11F1, 0 to 20 μg/mL competitor, furin inhibitor 4.5 μg/mL
# T2 construct: purchased R&D Systems
# T2 sequence (P09958 108-794, species assumed): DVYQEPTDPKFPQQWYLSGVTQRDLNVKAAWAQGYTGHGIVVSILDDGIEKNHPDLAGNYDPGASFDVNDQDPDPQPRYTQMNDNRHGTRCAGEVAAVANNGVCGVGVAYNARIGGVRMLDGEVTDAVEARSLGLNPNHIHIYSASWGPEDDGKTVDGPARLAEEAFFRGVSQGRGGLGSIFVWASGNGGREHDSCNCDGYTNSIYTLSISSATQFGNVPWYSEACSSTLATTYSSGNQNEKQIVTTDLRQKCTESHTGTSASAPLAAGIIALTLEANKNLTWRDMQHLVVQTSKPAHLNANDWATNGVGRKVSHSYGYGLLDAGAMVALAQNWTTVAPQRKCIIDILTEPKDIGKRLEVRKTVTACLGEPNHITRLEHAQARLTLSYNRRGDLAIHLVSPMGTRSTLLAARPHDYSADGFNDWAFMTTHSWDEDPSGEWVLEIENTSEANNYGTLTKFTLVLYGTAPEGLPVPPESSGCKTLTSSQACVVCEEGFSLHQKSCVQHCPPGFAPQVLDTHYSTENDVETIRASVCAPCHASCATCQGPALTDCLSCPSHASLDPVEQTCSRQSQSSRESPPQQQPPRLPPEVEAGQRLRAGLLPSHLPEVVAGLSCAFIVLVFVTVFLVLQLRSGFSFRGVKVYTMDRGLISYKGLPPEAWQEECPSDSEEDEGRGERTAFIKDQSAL
# Experimental: as §1, §2
# [4] = target: T3, PCSK1 (Homo sapiens, UniProt P29120); conditions: 0.4 μg/mL 11F1, 0 to 20 μg/mL competitor
# T3 construct: purchased R&D Systems
# T3 sequence (P29120 111-753): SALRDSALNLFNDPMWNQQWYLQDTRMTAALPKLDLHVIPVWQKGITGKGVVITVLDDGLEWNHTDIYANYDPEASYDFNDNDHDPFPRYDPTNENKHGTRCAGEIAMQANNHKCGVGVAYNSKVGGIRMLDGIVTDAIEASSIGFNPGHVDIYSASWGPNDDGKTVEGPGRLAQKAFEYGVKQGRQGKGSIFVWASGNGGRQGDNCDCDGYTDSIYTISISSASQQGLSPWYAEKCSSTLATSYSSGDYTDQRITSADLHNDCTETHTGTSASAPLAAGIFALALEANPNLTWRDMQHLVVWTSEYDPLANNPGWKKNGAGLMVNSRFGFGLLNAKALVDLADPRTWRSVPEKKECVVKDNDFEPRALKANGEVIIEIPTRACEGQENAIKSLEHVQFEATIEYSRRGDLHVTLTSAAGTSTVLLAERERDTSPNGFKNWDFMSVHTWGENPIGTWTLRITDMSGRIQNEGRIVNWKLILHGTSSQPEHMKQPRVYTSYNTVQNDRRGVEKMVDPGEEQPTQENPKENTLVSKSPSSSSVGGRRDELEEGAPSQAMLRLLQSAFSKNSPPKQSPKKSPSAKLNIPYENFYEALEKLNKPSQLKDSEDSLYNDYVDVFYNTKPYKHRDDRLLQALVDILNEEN
# Experimental: as §1, §2
# [5] = target: T4, PCSK7 (Homo sapiens, UniProt Q16549); conditions: 0.4 μg/mL 11F1, 0 to 20 μg/mL competitor
# T4 construct: purchased R&D Systems
# T4 sequence (Q16549 142-785): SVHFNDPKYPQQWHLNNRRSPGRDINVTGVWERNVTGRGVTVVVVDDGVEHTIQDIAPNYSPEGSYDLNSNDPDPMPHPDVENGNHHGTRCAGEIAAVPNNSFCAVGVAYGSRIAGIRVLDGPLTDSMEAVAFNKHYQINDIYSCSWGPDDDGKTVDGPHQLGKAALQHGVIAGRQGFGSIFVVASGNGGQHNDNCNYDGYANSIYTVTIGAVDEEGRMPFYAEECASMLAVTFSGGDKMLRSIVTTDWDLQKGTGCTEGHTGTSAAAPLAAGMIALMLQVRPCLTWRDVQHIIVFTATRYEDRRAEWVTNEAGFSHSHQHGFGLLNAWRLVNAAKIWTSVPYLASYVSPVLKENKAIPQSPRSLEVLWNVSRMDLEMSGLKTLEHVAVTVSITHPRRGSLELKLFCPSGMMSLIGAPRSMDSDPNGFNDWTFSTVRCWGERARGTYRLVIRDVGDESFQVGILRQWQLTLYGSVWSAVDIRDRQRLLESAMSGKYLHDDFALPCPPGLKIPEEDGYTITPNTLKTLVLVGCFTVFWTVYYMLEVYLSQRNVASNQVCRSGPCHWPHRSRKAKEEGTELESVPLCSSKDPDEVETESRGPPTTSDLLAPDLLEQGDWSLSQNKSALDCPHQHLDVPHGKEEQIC
# Experimental: as §1, §2
# Chain of PCSK9 (Q8NBP7 153-692): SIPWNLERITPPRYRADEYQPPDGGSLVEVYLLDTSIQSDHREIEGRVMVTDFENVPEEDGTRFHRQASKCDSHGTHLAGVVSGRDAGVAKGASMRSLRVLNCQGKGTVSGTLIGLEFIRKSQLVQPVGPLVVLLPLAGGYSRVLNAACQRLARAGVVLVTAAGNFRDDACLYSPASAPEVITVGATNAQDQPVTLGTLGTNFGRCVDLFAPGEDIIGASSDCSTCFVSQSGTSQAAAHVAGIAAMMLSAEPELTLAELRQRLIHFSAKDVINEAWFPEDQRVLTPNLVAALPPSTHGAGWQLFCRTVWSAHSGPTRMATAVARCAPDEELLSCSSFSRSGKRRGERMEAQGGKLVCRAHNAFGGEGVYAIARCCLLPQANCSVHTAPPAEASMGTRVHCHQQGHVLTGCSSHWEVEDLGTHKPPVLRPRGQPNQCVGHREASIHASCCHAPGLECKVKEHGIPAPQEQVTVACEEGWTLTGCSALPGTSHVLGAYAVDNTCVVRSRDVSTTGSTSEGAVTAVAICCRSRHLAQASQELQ
substance,measurement,setting,value
"11F1: anti-PCSK9 ABP, light/heavy variable region SEQ ID NO 465/463 [Antibody 11F1]",effect of pre-incubation with PCSK9 in solution on 11F1 binding to plate-captured PCSK9,[1],dose dependently and robustly reduced
same,effect of pre-incubation with PCSK2 in solution on 11F1 binding to plate-captured PCSK9,[2],did not significantly impact the binding
same,effect of pre-incubation with furin in solution on 11F1 binding to plate-captured PCSK9,[3],did not significantly impact the binding
same,effect of pre-incubation with PCSK1 in solution on 11F1 binding to plate-captured PCSK9,[4],did not significantly impact the binding
same,effect of pre-incubation with PCSK7 in solution on 11F1 binding to plate-captured PCSK9,[5],did not significantly impact the binding
